Data taken from patent US20200087373A1 (UNIVERSITY OF COPENHAGEN, published 2020).
Where “and” joins values, the source holds several entries; their conditions need not be identical. Equal entries are not always repeated. Ends that are not written are not given here. * marks the point of attachment. C16 diacid = O=C(O)CCCCCCCCCCCCCCC(=O)*; Stearoyl = CCCCCCCCCCCCCCCCCC(=O)*; Palmitoyl = CCCCCCCCCCCCCCCC(=O)*; Lauroyl = CCCCCCCCCCCC(=O)*

T1: human GIP receptor (human, UniProt P48546 22-466)
T1 construct: whole, on cells; also called hGIPR
T1 sequence (looked up): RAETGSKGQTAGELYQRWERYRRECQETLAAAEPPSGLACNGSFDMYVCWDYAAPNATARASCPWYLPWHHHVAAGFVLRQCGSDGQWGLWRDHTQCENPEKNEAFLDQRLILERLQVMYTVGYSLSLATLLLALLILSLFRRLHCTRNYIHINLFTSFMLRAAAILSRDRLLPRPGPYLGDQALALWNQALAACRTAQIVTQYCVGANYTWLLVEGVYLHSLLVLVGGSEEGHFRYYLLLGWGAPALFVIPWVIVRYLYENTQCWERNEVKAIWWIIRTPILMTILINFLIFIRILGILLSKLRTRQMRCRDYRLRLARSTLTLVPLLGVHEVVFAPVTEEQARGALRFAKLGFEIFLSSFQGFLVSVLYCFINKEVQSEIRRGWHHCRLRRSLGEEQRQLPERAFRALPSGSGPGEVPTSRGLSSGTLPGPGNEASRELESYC


Key:
human GIP receptor [1] = target: T1, human GIP receptor; assay: 125I-hGIP competition binding, COS-7/hGIPR, 2% HSA;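 also: nonspecific binding defined as radioligand binding to untransfected cells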
Method: (§1) After incubation, the cells were washed twice in ice-cold binding buffer (+/−2% HSA) and lysed using 200 mM NaOH with 1% SDS for 30 min. Nonspecific binding was determined as the binding of radioactive ligand to untransfected cells.

human GIP receptor [2] = target: T1, human GIP receptor; assay: 125I-hGIP competition binding, COS-7/hGIPR, 0.1% casein;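 also: nonspecific binding defined as radioligand binding measured on untransfected cells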
Method: as §1

human GIP receptor [3] = target: T1, human GIP receptor; assay: 125I-hGIP competition binding, COS-7 cells expressing hGIPR;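 also: nonspecific binding taken as radioligand bound by untransfected cells, binding buffer with or without 2% HSA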
Method: as §1

human GIP receptor [4] = target: T1, human GIP receptor; assay: IC50 with 2% HSA over IC50 with 0.1% casein, 125I-hGIP competition, COS-7/hGIPR
Method: as §1

human GIP receptor [5] = target: T1, human GIP receptor; assay: cell-based or functional assay

Binder	IC50 (human GIP receptor [1]) [nM]	logIC50 (human GIP receptor [1]) [log M]	IC50 (human GIP receptor [2]) [nM]	logIC50 (human GIP receptor [2]) [log M]	IC50 (human GIP receptor [3]) [nM]	log IC50 (human GIP receptor [3])	Fold change HSA (2%)/Casein (0.1%) (human GIP receptor [4]) [fold]	cAMP agonism (human GIP receptor [5]) [nM]	cAMP agonism, EC50 (log) (human GIP receptor [5])	cAMP agonism, Emax (human GIP receptor [5])	cAMP antagonism (human GIP receptor [5]) [nM]	cAMP antagonism, log (human GIP receptor [5]) [log M]
Lauroyl-TFISDYSIAMDKIHQQDFVNWLLAQK-NH2 (SMILES CCCCCCCCCCCC(=O)N[C@H](C(=O)N[C@@H](Cc1ccccc1)C(=O)N[C@H](C(=O)N[C@@H](CO)C(=O)N[C@@H](CC(=O)O)C(=O)N[C@@H](Cc1ccc(O)cc1)C(=O)N[C@@H](CO)C(=O)N[C@H](C(=O)N[C@@H](C)C(=O)N[C@@H](CCSC)C(=O)N[C@@H](CC(=O)O)C(=O)N[C@@H](CCCCN)C(=O)N[C@H](C(=O)N[C@@H](Cc1c[nH]cn1)C(=O)N[C@@H](CCC(N)=O)C(=O)N[C@@H](CCC(N)=O)C(=O)N[C@@H](CC(=O)O)C(=O)N[C@@H](Cc1ccccc1)C(=O)N[C@H](C(=O)N[C@@H](CC(N)=O)C(=O)N[C@@H](Cc1c[nH]c2ccccc12)C(=O)N[C@@H](CC(C)C)C(=O)N[C@@H](CC(C)C)C(=O)N[C@@H](C)C(=O)N[C@@H](CCC(N)=O)C(=O)N[C@@H](CCCCN)C(N)=O)C(C)C)[C@@H](C)CC)[C@@H](C)CC)[C@@H](C)CC)[C@@H](C)O) [AT118 [hGIP(5-30)NH2-C12/5]]	881	-6.1	115	-6.9	102	-7 log M	7.7					
Palmitoyl-TFISDYSIAMDRIKQQDFVNWLLAQR-NH2 (SMILES CCCCCCCCCCCCCCCC(=O)N[C@H](C(=O)N[C@@H](Cc1ccccc1)C(=O)N[C@H](C(=O)N[C@@H](CO)C(=O)N[C@@H](CC(=O)O)C(=O)N[C@@H](Cc1ccc(O)cc1)C(=O)N[C@@H](CO)C(=O)N[C@H](C(=O)N[C@@H](C)C(=O)N[C@@H](CCSC)C(=O)N[C@@H](CC(=O)O)C(=O)N[C@@H](CCCNC(=N)N)C(=O)N[C@H](C(=O)N[C@@H](CCCCN)C(=O)N[C@@H](CCC(N)=O)C(=O)N[C@@H](CCC(N)=O)C(=O)N[C@@H](CC(=O)O)C(=O)N[C@@H](Cc1ccccc1)C(=O)N[C@H](C(=O)N[C@@H](CC(N)=O)C(=O)N[C@@H](Cc1c[nH]c2ccccc12)C(=O)N[C@@H](CC(C)C)C(=O)N[C@@H](CC(C)C)C(=O)N[C@@H](C)C(=O)N[C@@H](CCC(N)=O)C(=O)N[C@@H](CCCNC(=N)N)C(N)=O)C(C)C)[C@@H](C)CC)[C@@H](C)CC)[C@@H](C)CC)[C@@H](C)O) [AT133 [hGIP(5-30)NH2[K16R; H18K; K30R]-C16/5]]	2200	-5.7	1720	-5.8	1720	-5.8 log M	1.3					
TFISDYSIAMDKIHQQDFVNWLLK(C16 diacid)QK-NH2 (N-terminus assumed; SMILES CC[C@H](C)[C@H](NC(=O)[C@H](CO)NC(=O)[C@H](Cc1ccc(O)cc1)NC(=O)[C@H](CC(=O)O)NC(=O)[C@H](CO)NC(=O)[C@@H](NC(=O)[C@H](Cc1ccccc1)NC(=O)[C@@H](N)[C@@H](C)O)[C@@H](C)CC)C(=O)N[C@@H](C)C(=O)N[C@@H](CCSC)C(=O)N[C@@H](CC(=O)O)C(=O)N[C@@H](CCCCN)C(=O)N[C@H](C(=O)N[C@@H](Cc1c[nH]cn1)C(=O)N[C@@H](CCC(N)=O)C(=O)N[C@@H](CCC(N)=O)C(=O)N[C@@H](CC(=O)O)C(=O)N[C@@H](Cc1ccccc1)C(=O)N[C@H](C(=O)N[C@@H](CC(N)=O)C(=O)N[C@@H](Cc1c[nH]c2ccccc12)C(=O)N[C@@H](CC(C)C)C(=O)N[C@@H](CC(C)C)C(=O)N[C@@H](CCCCNC(=O)CCCCCCCCCCCCCCC(=O)O)C(=O)N[C@@H](CCC(N)=O)C(=O)N[C@@H](CCCCN)C(N)=O)C(C)C)[C@@H](C)CC) [AT188 [hGIP(5-30)NH2[A28K]-C16diacid/28]]			26300	-4.6	183	-6.7 log M and -6.74 log M		152	-7 log M and -6.8 log M	10	152	-6.8
TFISDYSIAMDRIK(C16 diacid)QQDFVNWLLAQR-NH2 (N-terminus assumed; SMILES CC[C@H](C)[C@H](NC(=O)[C@H](CO)NC(=O)[C@H](Cc1ccc(O)cc1)NC(=O)[C@H](CC(=O)O)NC(=O)[C@H](CO)NC(=O)[C@@H](NC(=O)[C@H](Cc1ccccc1)NC(=O)[C@@H](N)[C@@H](C)O)[C@@H](C)CC)C(=O)N[C@@H](C)C(=O)N[C@@H](CCSC)C(=O)N[C@@H](CC(=O)O)C(=O)N[C@@H](CCCNC(=N)N)C(=O)N[C@H](C(=O)N[C@@H](CCCCNC(=O)CCCCCCCCCCCCCCC(=O)O)C(=O)N[C@@H](CCC(N)=O)C(=O)N[C@@H](CCC(N)=O)C(=O)N[C@@H](CC(=O)O)C(=O)N[C@@H](Cc1ccccc1)C(=O)N[C@H](C(=O)N[C@@H](CC(N)=O)C(=O)N[C@@H](Cc1c[nH]c2ccccc12)C(=O)N[C@@H](CC(C)C)C(=O)N[C@@H](CC(C)C)C(=O)N[C@@H](C)C(=O)N[C@@H](CCC(N)=O)C(=O)N[C@@H](CCCNC(=N)N)C(N)=O)C(C)C)[C@@H](C)CC) [AT157 [hGIP(5-30)NH2[K16R; H18K; K30R]-C16diacid/18]]								3	-8 log M	12	7	-8.1
{C18 fatty acyl}-TFISDYSIAMDKIHQQDFVNWLLAQK-NH2 [AT127 [hGIP(5-30)NH2-C18/5]]			1470	-5.8	2040	-5.7 log M						
TFISDYSIAMDKIK(C16 diacid)QQDFVNWLLAQK-NH2 (N-terminus assumed; SMILES CC[C@H](C)[C@H](NC(=O)[C@H](CO)NC(=O)[C@H](Cc1ccc(O)cc1)NC(=O)[C@H](CC(=O)O)NC(=O)[C@H](CO)NC(=O)[C@@H](NC(=O)[C@H](Cc1ccccc1)NC(=O)[C@@H](N)[C@@H](C)O)[C@@H](C)CC)C(=O)N[C@@H](C)C(=O)N[C@@H](CCSC)C(=O)N[C@@H](CC(=O)O)C(=O)N[C@@H](CCCCN)C(=O)N[C@H](C(=O)N[C@@H](CCCCNC(=O)CCCCCCCCCCCCCCC(=O)O)C(=O)N[C@@H](CCC(N)=O)C(=O)N[C@@H](CCC(N)=O)C(=O)N[C@@H](CC(=O)O)C(=O)N[C@@H](Cc1ccccc1)C(=O)N[C@H](C(=O)N[C@@H](CC(N)=O)C(=O)N[C@@H](Cc1c[nH]c2ccccc12)C(=O)N[C@@H](CC(C)C)C(=O)N[C@@H](CC(C)C)C(=O)N[C@@H](C)C(=O)N[C@@H](CCC(N)=O)C(=O)N[C@@H](CCCCN)C(N)=O)C(C)C)[C@@H](C)CC) [AT156 [hGIP(5-30)NH2[H18K]-C16diacid/18]]								2	-9 log M	12	12	-7.9
K(C16 diacid)FISDYSIAMDKIHQQDFVNWLLAQK-NH2 (N-terminus assumed; SMILES CC[C@H](C)[C@H](NC(=O)[C@H](CO)NC(=O)[C@H](Cc1ccc(O)cc1)NC(=O)[C@H](CC(=O)O)NC(=O)[C@H](CO)NC(=O)[C@@H](NC(=O)[C@H](Cc1ccccc1)NC(=O)[C@@H](N)CCCCNC(=O)CCCCCCCCCCCCCCC(=O)O)[C@@H](C)CC)C(=O)N[C@@H](C)C(=O)N[C@@H](CCSC)C(=O)N[C@@H](CC(=O)O)C(=O)N[C@@H](CCCCN)C(=O)N[C@H](C(=O)N[C@@H](Cc1c[nH]cn1)C(=O)N[C@@H](CCC(N)=O)C(=O)N[C@@H](CCC(N)=O)C(=O)N[C@@H](CC(=O)O)C(=O)N[C@@H](Cc1ccccc1)C(=O)N[C@H](C(=O)N[C@@H](CC(N)=O)C(=O)N[C@@H](Cc1c[nH]c2ccccc12)C(=O)N[C@@H](CC(C)C)C(=O)N[C@@H](CC(C)C)C(=O)N[C@@H](C)C(=O)N[C@@H](CCC(N)=O)C(=O)N[C@@H](CCCCN)C(N)=O)C(C)C)[C@@H](C)CC) [AT293 [hGIP(5-30)NH2[T5KK]-C16diacid/5]]										0	14	-7.8
TFISDYSIAMDKIK(Stearoyl)QQDFVNWLLAQK-NH2 (N-terminus assumed; SMILES CCCCCCCCCCCCCCCCCC(=O)NCCCC[C@H](NC(=O)[C@@H](NC(=O)[C@H](CCCCN)NC(=O)[C@H](CC(=O)O)NC(=O)[C@H](CCSC)NC(=O)[C@H](C)NC(=O)[C@@H](NC(=O)[C@H](CO)NC(=O)[C@H](Cc1ccc(O)cc1)NC(=O)[C@H](CC(=O)O)NC(=O)[C@H](CO)NC(=O)[C@@H](NC(=O)[C@H](Cc1ccccc1)NC(=O)[C@@H](N)[C@@H](C)O)[C@@H](C)CC)[C@@H](C)CC)[C@@H](C)CC)C(=O)N[C@@H](CCC(N)=O)C(=O)N[C@@H](CCC(N)=O)C(=O)N[C@@H](CC(=O)O)C(=O)N[C@@H](Cc1ccccc1)C(=O)N[C@H](C(=O)N[C@@H](CC(N)=O)C(=O)N[C@@H](Cc1c[nH]c2ccccc12)C(=O)N[C@@H](CC(C)C)C(=O)N[C@@H](CC(C)C)C(=O)N[C@@H](C)C(=O)N[C@@H](CCC(N)=O)C(=O)N[C@@H](CCCCN)C(N)=O)C(C)C) [AT161 [hGIP(5-30)NH2[H18K]-C18/18]]								1060	-6 log M	7	252	-6.6
